Measured values taken from US20120207760A1.
pKd: −log10 of the molar value.

How the values were obtained:
[1] = target: recombinant soluble homotrimeric HA of A/Common magpie/Hong Kong/5052/07 - H5N1 (Influenza A virus A/common magpie/Hong Kong/5052/2007 (H5N1)); assay: micro-array; captured IgG, V5-tagged trimeric HA
[2] = target: M2 protein of influenza A/Japan/305/57 (H2N2), on inactivated whole virions (Influenza A virus A/Japan/305/1957 (H2N2)) (UniProt Q6XU12); assay: ELISA, positive control antibody on inactivated whole virions
[3] = target: M2 protein of influenza A/Puerto Rico/8/34 (H1N1), on inactivated virus (Influenza A virus A/Puerto Rico/8/34 (H1N1)) (UniProt P06821); assay: surface plasmon resonance, Fab fragment on influenza virus

Chain of TCN-032 (8I10) (antibody) (VH): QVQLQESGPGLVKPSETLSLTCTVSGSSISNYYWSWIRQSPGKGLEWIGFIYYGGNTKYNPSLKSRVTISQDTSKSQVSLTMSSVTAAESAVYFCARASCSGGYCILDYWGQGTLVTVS
Chain of TCN-032 (8I10) (antibody) (VL): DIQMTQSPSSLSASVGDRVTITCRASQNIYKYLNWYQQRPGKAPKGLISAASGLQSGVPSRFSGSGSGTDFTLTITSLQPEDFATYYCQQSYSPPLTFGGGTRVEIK

TCN-202 (2N9) (antibody) gave a Trimeric HA Binding: RLU [1] of 1370 RLU.
TCN-032 (8I10) (antibody) gave an OD450 [2] of 3.61 OD450.
With ch14C2 Fab fragment the pKd [3] was 5.40, the koff [3] was 0.0018 s⁻¹ and the kon [3] was 500 M⁻¹ s⁻¹.
